Experimental data as given in patent publication US20190041402A1 (GOVERNING COUNCIL OF THE UNIVERSITY OF TORONTO, published 2019).
Numbering of substitutions follows the chain as printed.

B1: anti-αKlotho Fab clone 4809 (Fab, V domains shown)
VH: EVQLVESGGGLVQPGGSLRLSCAASGFNIYSYYIHWVRQAPGKGLEWVASIYSYYGSTSYADSVKGRFTISADTSKNTAYLQMNSLRAEDTAVYYCARSGPWAWYGLDYWGQGTLVTVSS
VL: DIQMTQSPSSLSASVGDRVTITCRASQSVSSAVAWYQQKPGKAPKLLIYSASSLYSGVPSRFSGSRSGTDFTLTISSLQPEDFATYYCQQSGWAYHPITFGQGTKVEIKR
notes: Fab (also as Fab-phage); FLAG tag on light chain; also called sb178
B2: anti-αKlotho Fab clone 4820 (Fab, V domains shown)
VH: EVQLVESGGGLVQPGGSLRLSCAASGFNISSYYMHWVRQAPGKGLEWVASIYSSYSSTYYADSVKGRFTISADTSKNTAYLQMNSLRAEDTAVYYCARGAWAMDYWGQGTLVTVSS
VL: B1 VL with G92P, A94G, Y95A, H96Y, P97L
notes: Fab (also as Fab-phage); FLAG tag on light chain; also called sb189
B3: anti-αKlotho Fab clone 4823 (Fab, V domains shown)
VH: EVQLVESGGGLVQPGGSLRLSCAASGFNFSSSSIHWVRQAPGKGLEWVAYIYSSYGYTYYADSVKGRFTISADTSKNTAYLQMNSLRAEDTAVYYCARAAHYGYYVHSGLDYWGQGTLVTVSS
VL: DIQMTQSPSSLSASVGDRVTITCRASQSVSSAVAWYQQKPGKAPKLLIYSASSLYSGVPSRFSGSRSGTDFTLTISSLQPEDFATYYCQQSSYSLITFGQGTKVEIKR
notes: Fab (also as Fab-phage); FLAG tag on light chain; also called sb192
B4: anti-αKlotho Fab clone 4828 (Fab, V domains shown)
VH: EVQLVESGGGLVQPGGSLRLSCAASGFNFSSSSIHWVRQAPGKGLEWVASISSSYGYTYYADSVKGRFTISADTSKNTAYLQMNSLRAEDTAVYYCARYVVGGWWYHYGMDYWGQGTLVTVSS
VL: B3 VL
notes: Fab (also as Fab-phage); FLAG tag on light chain; also called sb197
B5: anti-αKlotho Fab clone 4806 (Fab, V domains shown)
VH: EVQLVESGGGLVQPGGSLRLSCAASGFNISSSSIHWVRQAPGKGLEWVAYISSSYSSTSYADSVKGRFTISADTSKNTAYLQMNSLRAEDTAVYYCARSSGGGYYHWWVVPYAMDYWGQGTLVTVSS
VL: B3 VL
notes: Fab (also as Fab-phage); FLAG tag on light chain; also called sb175
B6: anti-αKlotho Fab clone 4810 (Fab, V domains shown)
VH: EVQLVESGGGLVQPGGSLRLSCAASGFNLSSSSIHWVRQAPGKGLEWVAYISPSYGSTSYADSVKGRFTISADTSKNTAYLQMNSLRAEDTAVYYCARSGYYSGAYWHWWVVPYAMDYWGQGTLVTVSS
VL: B3 VL
notes: Fab (also as Fab-phage); FLAG tag on light chain; also called sb179
B7: anti-αKlotho Fab clone 4815 (Fab, V domains shown)
VH: EVQLVESGGGLVQPGGSLRLSCAASGFNFSSSSIHWVRQAPGKGLEWVASISSSYGYTYYADSVKGRFTISADTSKNTAYLQMNSLRAEDTAVYYCARGFSSSAHWYWSWYGPGGGFDYWGQGTLVTVSS
VL: B3 VL
notes: Fab (also as Fab-phage); FLAG tag on light chain; also called sb184
B8: anti-αKlotho Fab clone 4827 (Fab, V domains shown)
VH: EVQLVESGGGLVQPGGSLRLSCAASGFNFSSSSIHWVRQAPGKGLEWVAYISSSSGSTSYADSVKGRFTISADTSKNTAYLQMNSLRAEDTAVYYCARAYHSYFYGSYWSYGWAGALDYWGQGTLVTVSS
VL: B3 VL
notes: Fab (also as Fab-phage); FLAG tag on light chain; also called sb196
B9: anti-αKlotho Fab clone 4834 (Fab, V domains shown)
VH: EVQLVESGGGLVQPGGSLRLSCAASGFNFSSSSIHWVRQAPGKGLEWVASISSSYGYTYYADSVKGRFTISADTSKNTAYLQMNSLRAEDTAVYYCARAVSFYYWAWYGPGFAMDYWGQGTLVTVSS
VL: B3 VL
notes: Fab (also as Fab-phage); FLAG tag on light chain; also called sb203
B10: anti-αKlotho Fab clone 4812 (Fab, V domains shown)
VH: EVQLVESGGGLVQPGGSLRLSCAASGFNLSSYSMHWVRQAPGKGLEWVASISSYSGYTSYADSVKGRFTISADTSKNTAYLQMNSLRAEDTAVYYCARSYSWWWSVSYAMDYWGQGTLVTVSS
VL: DIQMTQSPSSLSASVGDRVTITCRASQSVSSAVAWYQQKPGKAPKLLIYSASSLYSGVPSRFSGSRSGTDFTLTISSLQPEDFATYYCQQGYWLFTFGQGTKVEIK
notes: Fab (also as Fab-phage); FLAG tag on light chain; also called sb181
B11: anti-αKlotho Fab clone 4813 (Fab, V domains shown)
VH: EVQLVESGGGLVQPGGSLRLSCAASGFNLYSSSIHWVRQAPGKGLEWVASISPYSGYTYYADSVKGRFTISADTSKNTAYLQMNSLRAEDTAVYYCARYYSGWYSPAWWYGIDYWGQGTLVTVSS
VL: B1 VL with S91A, G92A, A94G, Y95G, H96A
notes: Fab (also as Fab-phage); FLAG tag on light chain; also called sb182
B12: anti-αKlotho Fab clone 4816 (Fab, V domains shown)
VH: EVQLVESGGGLVQPGGSLRLSCAASGFNFSSSSIHWVRQAPGKGLEWVASISSSYGYTYYADSVKGRFTISADTSKNTAYLQMNSLRAEDTAVYYCARGWYAAYSVYWFGGHASYGLDYWGQGTLVTVSS
VL: B3 VL
notes: Fab (also as Fab-phage); FLAG tag on light chain; also called sb185
B13: anti-αKlotho Fab clone 4817 (Fab, V domains shown)
VH: EVQLVESGGGLVQPGGSLRLSCAASGFNFSSSSIHWVRQAPGKGLEWVASISSSYGYTYYADSVKGRFTISADTSKNTAYLQMNSLRAEDTAVYYCARGYPSSGAAWFWFSHPGSAMDYWGQGTLVTVSS
VL: B3 VL
notes: Fab (also as Fab-phage); FLAG tag on light chain; also called sb186
B14: anti-αKlotho Fab clone 4818 (Fab, V domains shown)
VH: EVQLVESGGGLVQPGGSLRLSCAASGFNISYSSIHWVRQAPGKGLEWVASISPYSGYTYYADSVKGRFTISADTSKNTAYLQMNSLRAEDTAVYYCARSGHSVYWWWSHFGMDYWGQGTLVTVSS
VL: DIQMTQSPSSLSASVGDRVTITCRASQSVSSAVAWYQQKPGKAPKLLIYSASSLYSGVPSRFSGSRSGTDFTLTISSLQPEDFATYYCQQPYSPITFGQGTKVEIKR
notes: Fab (also as Fab-phage); FLAG tag on light chain; also called sb187
B15: anti-αKlotho Fab clone 4821 (Fab, V domains shown)
VH: EVQLVESGGGLVQPGGSLRLSCAASGFNLYYSYMHWVRQAPGKGLEWVASISPYSGSTYYADSVKGRFTISADTSKNTAYLQMNSLRAEDTAVYYCARSGFSSWWWVVSYAFDYWGQGTLVTVSS
VL: B3 VL
notes: Fab (also as Fab-phage); FLAG tag on light chain; also called sb190
B16: anti-αKlotho Fab clone 4826 (Fab, V domains shown)
VH: EVQLVESGGGLVQPGGSLRLSCAASGFNISSYYMHWVRQAPGKGLEWVASISSSYGYTYYADSVKGRFTISADTSKNTAYLQMNSLRAEDTAVYYCARGYPASSYYYPSSALDYWGQGTLVTVSS
VL: B1 VL with S91A, W93F, A94F, Y95S, H96Y
notes: Fab (also as Fab-phage); FLAG tag on light chain; also called sb195

target: T1, bovine serum albumin (bovine, UniProt P02769 25-607); test: Fab ELISA, purified Fab 5 ug/ml on immobilised BSA, anti-Flag-HRP, A450
T1 construct: also called BSA
Procedure: FIG. 10 is a graph showing absorbance values of Fab ELISAs with additional αKlotho antibodies. Purified Fabs [5 ug/ml] were incubated with immobilized αKlotho (1 ug/ml) or bovine serum albumin (BSA), as a negative control. After washing off unbound Fab, bound Fab were detected using an HRP-conjugated anti-Flag anti-body (Fabs have Flag-tag on the light chain). Colorimetric HRP reagents allow for absorbance readings at 450 nm.

T1 sequence (P02769 25-607 limits assumed): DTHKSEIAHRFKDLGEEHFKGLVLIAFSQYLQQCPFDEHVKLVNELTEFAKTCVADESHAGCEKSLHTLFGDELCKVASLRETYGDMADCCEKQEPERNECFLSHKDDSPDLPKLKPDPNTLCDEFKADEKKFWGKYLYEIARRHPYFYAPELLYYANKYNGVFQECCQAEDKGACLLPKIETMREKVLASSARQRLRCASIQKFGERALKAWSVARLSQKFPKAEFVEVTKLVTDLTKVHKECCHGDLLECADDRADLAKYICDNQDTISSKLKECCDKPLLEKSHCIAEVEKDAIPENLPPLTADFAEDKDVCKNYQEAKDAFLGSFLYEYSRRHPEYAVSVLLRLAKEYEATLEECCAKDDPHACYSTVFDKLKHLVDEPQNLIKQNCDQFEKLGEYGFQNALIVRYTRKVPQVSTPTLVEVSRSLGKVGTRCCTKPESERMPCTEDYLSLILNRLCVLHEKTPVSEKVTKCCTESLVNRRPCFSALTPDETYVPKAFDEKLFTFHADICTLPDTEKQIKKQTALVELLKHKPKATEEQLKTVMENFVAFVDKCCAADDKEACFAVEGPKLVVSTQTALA

B1: no binding (tested: 5 ug/ml).
B2: no binding (tested: 5 ug/ml).
B3: no binding (tested: 5 ug/ml).
B4: no binding (tested: 5 ug/ml).
B5: no binding (tested: 5 ug/ml).
B6: no binding (tested: 5 ug/ml).
B7: no binding (tested: 5 ug/ml).
B8: no binding (tested: 5 ug/ml).
B9: no binding (tested: 5 ug/ml).

target: T2, extracellular domain (ECD) of human αKlotho, amino acids E34-S981 with C-terminal 6-His tag (R&D Systems … (human, UniProt Q9UEF7 34-981)); test: SPR, Fab captured by anti-H+L antibody, αKlotho injected
T2 construct: range 34-981; also called αKlotho (aa34-981); target antigen
T2 sequence: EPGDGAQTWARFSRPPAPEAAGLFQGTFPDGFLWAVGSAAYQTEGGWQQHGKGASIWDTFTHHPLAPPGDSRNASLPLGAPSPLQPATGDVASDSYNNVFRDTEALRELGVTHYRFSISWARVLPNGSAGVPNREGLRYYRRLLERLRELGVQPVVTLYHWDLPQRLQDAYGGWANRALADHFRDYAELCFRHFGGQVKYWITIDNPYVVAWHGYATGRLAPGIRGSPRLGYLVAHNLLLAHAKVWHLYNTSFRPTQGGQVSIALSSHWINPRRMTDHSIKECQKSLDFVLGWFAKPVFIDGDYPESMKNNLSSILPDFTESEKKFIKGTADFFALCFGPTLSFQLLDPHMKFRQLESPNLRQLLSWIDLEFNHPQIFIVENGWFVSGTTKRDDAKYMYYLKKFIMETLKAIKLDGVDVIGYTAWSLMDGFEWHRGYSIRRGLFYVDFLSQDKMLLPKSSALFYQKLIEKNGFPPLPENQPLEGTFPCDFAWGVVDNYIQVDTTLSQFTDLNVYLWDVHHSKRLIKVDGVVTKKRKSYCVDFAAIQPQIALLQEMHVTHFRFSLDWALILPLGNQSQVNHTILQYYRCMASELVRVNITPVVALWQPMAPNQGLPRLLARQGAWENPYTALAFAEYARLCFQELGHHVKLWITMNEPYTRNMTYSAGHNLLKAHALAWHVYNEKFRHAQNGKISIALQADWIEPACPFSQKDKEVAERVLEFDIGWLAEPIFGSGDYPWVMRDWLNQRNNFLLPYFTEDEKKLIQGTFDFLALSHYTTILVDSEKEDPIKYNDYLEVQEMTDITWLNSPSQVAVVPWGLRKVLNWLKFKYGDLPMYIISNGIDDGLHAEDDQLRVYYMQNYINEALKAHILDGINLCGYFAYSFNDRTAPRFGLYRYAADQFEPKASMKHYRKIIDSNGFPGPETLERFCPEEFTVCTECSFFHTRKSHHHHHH
Procedure: (§1) Affinity estimates for each of the antibodies were determined by surface plasmon resonance (SPR). Fabs were immobilized using an anti-H+L antibody and serial dilutions of αKlotho were injected.

Point of comparison: B1, Kd 0.845 nM. Against it:
- B10 — within 1.5-fold, 0.885 nM
- B11 — 6.2-fold higher, 5.2 nM
- B12 — 4.4-fold higher, 3.7 nM
- B13 — 4.9-fold higher, 4.1 nM
- B14 — 2.5-fold higher, 2.1 nM
- B2 — 3.2-fold higher, 2.7 nM
- B15 — 6-fold higher, 5.1 nM
- B3 — 1.9-fold higher, 1.6 nM
- B4 — 5.8-fold higher, 4.9 nM
- B16 — 3.9-fold higher, 3.3 nM

target: T2, extracellular domain (ECD) of human …; test: SPR, Fab captured by anti-H+L IgG, αKlotho injected at 50 to 6.25 ug/ml, Langmuir fit [continued]
Procedure: as §1

Point of comparison: B12, Kd 2.06 nM. Against it:
- B1 — 4.5-fold lower, 0.46 nM
- B10 — 5.3-fold lower, 0.387 nM
- B11 — within 1.5-fold, 2.8 nM
- B13 — within 1.5-fold, 1.93 nM
- B14 — 2-fold lower, 1.05 nM
- B2 — within 1.5-fold, 1.48 nM
- B15 — within 1.5-fold, 2.85 nM
- B3 — 2.1-fold lower, 0.991 nM
- B4 — within 1.5-fold, 2.48 nM
- B16 — within 1.5-fold, 2.03 nM

Point of comparison: B11, koff 0.00164 s⁻¹. Against it:
- B1 — 6.4-fold lower, 0.000258 s⁻¹
- B10 — 8.6-fold lower, 0.000191 s⁻¹
- B12 — within 1.5-fold, 0.00183 s⁻¹
- B13 — 1.6-fold higher, 0.00269 s⁻¹
- B14 — 3-fold lower, 0.000539 s⁻¹
- B2 — within 1.5-fold, 0.00116 s⁻¹
- B15 — 1.7-fold higher, 0.00277 s⁻¹
- B3 — 2.2-fold lower, 0.000744 s⁻¹
- B4 — 2.1-fold lower, 0.000782 s⁻¹
- B16 — within 1.5-fold, 0.00218 s⁻¹

Point of comparison: B13, kon 1.39e+06 M⁻¹ s⁻¹. Against it:
- B1 — 2.5-fold lower, 560000 M⁻¹ s⁻¹
- B10 — 2.8-fold lower, 493000 M⁻¹ s⁻¹
- B11 — 2.4-fold lower, 588000 M⁻¹ s⁻¹
- B12 — 1.6-fold lower, 888000 M⁻¹ s⁻¹
- B14 — 2.7-fold lower, 512000 M⁻¹ s⁻¹
- B2 — 1.8-fold lower, 780000 M⁻¹ s⁻¹
- B15 — within 1.5-fold, 973000 M⁻¹ s⁻¹
- B3 — 1.9-fold lower, 750000 M⁻¹ s⁻¹
- B4 — 4.4-fold lower, 315000 M⁻¹ s⁻¹
- B16 — within 1.5-fold, 1.07e+06 M⁻¹ s⁻¹
